{
  "source": "the DeepSol protein solubility set",
  "data": [
    {"experiment": "soluble on expression in E. coli; label from the status in PepcDB or PDB records", "values": [
      {"sequence": "MTTLAIDIGGTKLAAALIDNNLRISQRRELPTPASKTPDALREALKALVEPLRAEARQVAIASTGIIQEGMLLALNPHNLGGLLHFPLVQTLEAIAGLPTLAVNDAQAAAWAEYHALPDDIRDMVFITVSTGVGGGVVCDGKLLTGKGGLAGHLGHTLADPHGPVCGCGRVGCVEAIASGRGMAAAARDDLAGCDAKTLFIRAGEGHQQARHLVSQSAQVIARMIADVKATTDCQCVVIGGSVGLAEGYLEQVRAFLMQEPAPYHVALSAARYRHDAGLLGAALLAQGDTL", "soluble on expression in E. coli": "not soluble"},
      {"sequence": "MSSTKSIPADVIAKLQKFDELITKLEDAVEEVDVGVEKHFERSAHEMALVDTMSMFLMDSLMWAVQATKGGGADKNDDLLIDLARTKRMTADMKEINLRQDAPRINKQAAANFVRNALWEQPEQGESSKKAAK", "soluble on expression in E. coli": "not soluble"},
      {"sequence": "MGSDKIHHHHHHMERDMICTPISYQNKTSAQTFSNFLKHTRTENNLSQEDLCGLLRQKSCLFDTLDSITISRWERGVNIPSLAKQSEIVEIFGSELFDIYREDKKFINEGLALINLFESNIERSDHPYYRNTPYRVEFIESHHHNFMALLQLSLVYESNPRLSFVSRNLSQPFFHGLSLVVAFSSGDQIVGHSLFCRSQGKIALEFMNDEVDLFEVINHNSQALPDTLMVFSSFGVTPYIENYMMSVYLNELAASRSLKFLSFNICDESLKRKLTQFKLPIFKVRTIEGCCKPIKNYSFFSSRTEVMANRNLLKLSVIPSSKSQTIDPIFFMQLETPI", "soluble on expression in E. coli": "not soluble"},
      {"sequence": "MAHAAAVEENQLQSLKDVAKQAPVHRKLDIQEWKTAEGAKVLFVEAHELPMFDLRLTFAAGSSQDAGTPGLSMLTNAMLNEGVPGKDTTAIAAGFEDLGASFSNGSYRDMAVAGLRSLSEADKRTQALKLFEQVIGQPTFPEDALARIKNQVLAGFEYQKQNPGKLAGLELFKRLYGEHPYAHSSDGDEKSVPTISREQLQAFHKKAYAAGNVVIALVGDLSRQEAEAIAAEVSKALPQGPALAKTVQPETPKPGLTHIDFPSEQTHLMLAQLGIDRQDPDYAALYLGNQILGGGGFGTRLMDQVREKRGLTYGIYSGFTAMQARGPFMINFQTRAELSEGALKLVQDIVRDYLANGPTQKELDDAKRELAGSFPLSTASNADIVGQLGAIGFYGLPLDYLESFLKQVEGLSVEQVRTAMAKHLDADAFVIVSAGPSVPQKLEHHHHHH", "soluble on expression in E. coli": "not soluble"},
      {"sequence": "MAHHHHHHMMSAAARKRRCQQARQREPAAPQQKGEASRHDDTAEPERKPLTGAVSPAINSAAEAPSATPPVLSSHFSLKPGLPTSPPLMHKRTATRCGSVDEDALFFQTYENVADMRFASLDEIAQSVVDLRQRVQQRMQHQRLLTDIEALHERHGSALLRSMPHVLNVLEAAAAVDDGAEGPSGRSGGGQFTMSPEQVYARMVRQIDEQRSGHEQHQRDPDNAEKVVGILHLRQLPVGRPIPPRIRQLRESAALAQVAASEEARRRSRLLPRESKDRSSSTTKRGVSVSAAVSIQFADPAAPLMASSTGGGRSSSLTTVMELRRWRPYLERRNRLSAALTRIFDATTLRAVYSYYRTCALLQRDAAVVRRLVPDRQQWSALPSIEELAVLDRRLEVMFEGRPSWDGRQGA", "soluble on expression in E. coli": "not soluble"},
      {"sequence": "MAHHHHHHMNTNGRSAYDMLARMSDEEDDDVPEDLELTFVPASKRREPASSHAVGHHAGNAVPSTLNSPTHSGPAVINPKPRAETVYEQERNAKVRQVLAEQQKTALGVVFSLDAFEAPSPGRYTLAGLQEATGTPAPSCSSAPYNREDQRRGFSQYRGRGGAEGGGRGGPGGGGGPRRYRMPNPNMSGEEQARYIRHRRNMAVIRNALREVDPETLEYMQVTQAPDQLPLNRNCEGFSKPYFSTDRGRGGVDAGGGRSTSSYRGRGGGGGMHGRGGRGFSPYSVGRGTGATRGDGLGRGAGGGCGRSAPFSPYS", "soluble on expression in E. coli": "not soluble"},
      {"sequence": "MSLKQKSSGKSVIITGVTQGLGRAMVDRFHELGWNIYGCGRSKDKIEELKKYYGNTHVFQIIDVSDSQQVSDWANYILHRNRAPDLLINNASIVNKNAPLWKVTAEEFENVMNVNVNGVVNVIRAFVPAMVARKAGMIINMSSSWGREGEAELAPYCASKFAIEGITKSLALELPYSMAVVALDPGGSISTPMLYSCAPQYVNESPTPEMWSQHAIPYILKITIDKNGASLTCPECTEGHHHHHH", "soluble on expression in E. coli": "soluble"},
      {"sequence": "MKILVIGAGPAGLVFASQLKQARPLWAIDIVEKNDEQEVLGWGVVLPGRPGQHPANPLSYLDAPERLNPQFLEDFKLVHHNEPSLMSTGVLLCGVERRGLVHALRDKCRSQGIAIRFESPLLEHGELPLADYDLVVLANGVNHKTAHFTEALVPQVDYGRNKYIWYGTSQLFDQMNLVFRTHGKDIFIAHAYKYSDTMSTFIVECSEETYARARLGEMSEEASAEYVAKVFQAELGGHGLVSQPGLGWRNFMTLSHDRCHDGKLVLLGDALQSGHFSIGHGTTMAVVVAQLLVKALCTEDGVPAALKRFEERALPLVQLFRGHADNSRVWFETVEERMHLSSAEFVQSFDARRKSLPPMPEALAQNLRYALQRLEHHHHHH", "soluble on expression in E. coli": "soluble"},
      {"sequence": "MGSDKIHHHHHHMLLHIPNVLNAEQLRIVRERLDTAGDAWVDGRATAGYQGAPVKRNQQIAEHTPIARELGDVILASIERNPLFISSVLPNQVYPPLFNRYEGGMQFGSHVDGAVRVLPNGVKLRTDVSVTLFISDPADYDGGELVIEDTYGVQQVKLPAGDMIVYPATSLHQVTPVTRGVRVASFFWVQSLVRSDTQRAMLFDMDTAIQRLNATNADDAARRSLVGIYHNLLRTWSEP", "soluble on expression in E. coli": "not soluble"},
      {"sequence": "MELRDRIDFLCKTILAIKTAGRLVLGIDGLSRSGKTTLANQLSQTLREQGISVCVFHMDDHIVERAKRYHTGNEEWFEYYYLQWDVEWLTHQLFRQLKASHQLTLPFYDHETDTHSKRTVYLSDSDMIMIEGVFLQRKEWRPFFDFVVYLDCPREIRFARENDQVKQNIQKFINRYWKAEDYYLETEEPIKRADVVFDMTS", "soluble on expression in E. coli": "soluble"},
      {"sequence": "MPKRAVSFADDIETRVFKRDKREIEDGILDIPMEEDVVKERPGNADEDEEEKKKFHTLESDEEEEEDHKRLDTRRVEGQEDCGVDFDGSIKITAFNMKEDEEEGHFDETGNFIFDKKTKDVQDAWLDGIDWSLVKKKAGDQWEGDEDKKSLEDEEPEPITMSDARKKEIFEQLVNLLKPNQTVAKALSELKKKKGLSAAEERKLRWAAKKAGKSFEPTDGQKETSQLSGLADELISAGIMDAYEWHREKFNFQLQKMISTAADELDMFSDEPTSTGAARAAGAPMEQEEEEADDSVKWEYKANEEAKIEVEYEKTDDFGEIRVNKIGPIPTSEMMDRQSKGLLSAEGVARRSGTNGHFNPVARIDFELYL", "soluble on expression in E. coli": "soluble"},
      {"sequence": "ADQPSPTWGIDRIDQRNLPLDNNYHTDYDGSGVTAFVIDTGVLNTHNEFGGRASSGYDFIDNDYDATDCNGHGTHVAGTIGGSTYGVAKNVNVVGVRVLNCSGSGSNSGVIAGINWVKNNASGPAVANMSLGGGASQATDDAVNAAVAAGITFVVAAGNDNSNACNYSPARAADAITVGSTTSNDSRSSFSNYGTCLDIYAPGSSITSSWYTSNSATNTISGTSMASPHVAGVAALYLDENPNLSPAQVTNLLKTRATADKVTDAKTGSPNKLLFSLA", "soluble on expression in E. coli": "soluble"},
      {"sequence": "MAHHHHHHMKFAFVFPGQGSQSVGMLNAFADVAVVRETLDEASDALGQDIGKLIADGPADELNLTTNTQPVMLTAAYACYRAWQQAGGAQPSIVAGHSLGEYTALVAAGAIAFRDALPLVRFRAQAMQTAVPVGVGGMAAILGLDDDTVRAVCAEASATGVVEAVNFNAPAQVVIAGTKAGIEKACEIAKEKGAKRALPLPVSAPFHSSLLKPASDKLREYLAGVDVKAPKISVVNNIDVAVVSDPAAIKDALVRQAAGPVRWVECVQHIAREGVTHVIECGPGKVLAGLTKRIDGNLVGASVFDPASLDEALKLAAA", "soluble on expression in E. coli": "soluble"},
      {"sequence": "MKPRIYVKVKPERLGAVIGPRGEVKAEIMRRTGTVITVDTENSMVIVEPEAEGIPPVNLMKAAEVVKAISLGFPPEKAFRLLEEDQILVVVDLKQVVGDSQNHLKRIKGRIIGEGGRARRTIEEMTDTYINVGEYEVAIIGDYERAMAAKQAIEMLAEGRMHSTVYRHLERIMREIKRRERLKMWAREEL", "soluble on expression in E. coli": "soluble"},
      {"sequence": "MGSDKIHHHHHHMPKVEIAPSEIKIPDNVLKAKLGFGGAEEIPEEFRKTVNRAYEELLDAAKPVVLWRDFEVDGSLSFDDMRLTGELATKHLSGSKIITVFLATLGKKVDEKIEEYFRKGEDLLAFFIDGIASEMVEYALRKVDAELRMKRSNLEGSFRISPGYGDLPLSLNKKIAEIFKEEVDVNVIEDSYVLVPRKTITAFVGWREKNEKQT", "soluble on expression in E. coli": "soluble"},
      {"sequence": "ELALWSPEVKIVELVKDCKGLGFSILDYQDPLDPTRSVIVIRSLVADGVAERSGGLLPGDRLVSVNEYCLDNTSLAEAVEILKAVPPGLVHLGIC", "soluble on expression in E. coli": "soluble"},
      {"sequence": "MSDFGNPLKKFKLVFLGEQSVGKTSLITRFMYDSFDNTYQATIGIDFLSKTMYLEDRTVRLQLWDTAGQERFRSLIPSYIRDSTVAVVVYDITNSNSFHQTSKWIDDVRTERGSDVIIMLVGNKTDLSDKRQVTTDEGERKAKELNVMFIETSAKAGYNVKQLFRRIAGALPGIIKDDPVEPPNVVTMDPIRQRQIVTDEGSCWC", "soluble on expression in E. coli": "not soluble"},
      {"sequence": "MSLSIKLVAIDIDGTLLNSQHKITPRVKEALQKANEQGVRIVLCTGRPLPGVKEQLDELALYGENDFVITYNGSLVQATKDNTIISRYTLSYEDFLEIEMYSRKVGAHLHTIDDSAIYTANRNIGKYTIHEASLVNMPLKYRTVDEMTPEMNIIKMMMIDEPEVLDPAIAKLPLHFTEKYTTVKSTPFYYEIMNKNASKGNALAKLADHLGLNKDEVMAIGDNENDLSMIDYAGIGVAMGNATENVKTIADVHTTSNDEDGVAQIIEKMVLIEGHHHHHH", "soluble on expression in E. coli": "soluble"},
      {"sequence": "GKPKTDTDFQTYNGDGFKLQIPSKWNPNKEVEYPGQVLRFEDNFDATSNVIVAITPTDKKSITDFGSPEQFLSQVDYLLGRQAYSGKTDSEGGFESDAVAIANVLETSTAEVGGKQYYYLSILTRTADGNEGGKHQLVTATVNDGKLYICKAQAGDKRWFKGAKKFVENTATSFSLA", "soluble on expression in E. coli": "soluble"},
      {"sequence": "MGSDKIHHHHHHMMDTVKNRRTIRKYQQKDITPDLLNDLLETSFRASTMGGMQLYSVVVTRDAEKKEILSPAHFNQPMVKEAPVVLTFCADFRRFCKYCQERNAVPGYGNLMSFLNAAMDTLLVAQTFCTLAEEAGLGICYLGTTTYNPQMIIDALHLPELVFPITTVTVGYPAESPKQVDRLPIEGIIHEESYHDYTAEDINRLYAYKESLPENKLFIEENQKETLPQVFTDVRYTKKDNEFMSENLLKVLRRQGFMD", "soluble on expression in E. coli": "not soluble"},
      {"sequence": "MSLSEEILINITPMESRVAVVENGVLQEVHVERTQRRGIVGNIYKGRVVRVLPGMQAAFVDIGLERAAFIHAAEISNREGSAVESISALVHEGQALVVQVTKDPIGTKGARLTTHLSIPSRYLVYMPRTSHVGISLRIEDEVERERLKKVVADCVAAEGIEGQGGFILRTAAEGAGEDEILADIRYLRRLWDQIAAQIQTVGAPSVIYEDLSLAIRTLRDLVNPRIEKIRIDSRENFQKITSFVEELMPEISDRLEHYPGERPIFDLYGVEDEIQKALERKVLLKSGGYLIVDPTEAMTTIDVNTGAFVGHRNLEETIFKTNLEAATAIARQLRLRNLGGIIIIDFIDMEDEEHRRQVLRTLEKQLERDHAKTNIIGITELGLVQMTRKRTRESLVQILCEPCPCCQGRGMLKTAETTCYEIFREILREARAYQADSYLVLANQKVVDRLLDEESGNVADLEAFIGRTIKFQVEAMYSQEQYDVVLLEGGSHHHHHH", "soluble on expression in E. coli": "soluble"},
      {"sequence": "MTKQLPNLQVALDHSNLKGAITAAVSVGNEVDVIEAGTVCLLQVGSELVEVLRSLFPDKIIVADTKCADAGGTVAKNNAVRGADWMTCICSATIPTMKAARKAIEDINPDKGEIQVELYGDWTYDQAQQWLDAGISQAIYHQSRDALLAGETWGEKDLNKVKKLIEMGFRVSVTGGLSVDTLKLFEGVDVFTFIAGRGITEAKNPAGAARAFKDEIKRIWG", "soluble on expression in E. coli": "soluble"}
    ]}
  ]
}
